Laboratory results taken from patent US20230391832A1 (ISOLERE BIO, published 2023).
Where a chain is given by its changes, count along the chain named.

B1: SEQ ID NO 53 (designed binder)
chain: MATGVRAVPGNENSLEIEELARFAVDEHNKKENALLEFVRVVKAKEQRARYYYVNRTMYYLTLEAKDGGKKKLYEAKVWVKWVIRGDSPANFKELQEFKLVGDA
notes: N-terminal Met printed as (M)
B2: SEQ ID NO 26 (designed binder)
chain: MATGVRAVPGNENSLEIEELARFAVDEHNKKENALLEFVRVVKAKEQVVAGTMYYLTLEAKDGGKKKLYEAKVWVKIRAIVYWSGNFKELQEFKPVGDA
notes: N-terminal Met printed as (M)
B3: SEQ ID NO 46 (designed binder)
chain: B2 chain with R78G, A79I, I80P, V81I, Y82R, W83I, S84W, G85S
notes: N-terminal Met printed as (M)
B4: SEQ ID NO 48 (designed binder)
chain: B2 chain with R40C, I77V, R78A, A79P, V81Y, Y82S, W83V, S84D, G85S
notes: N-terminal Met printed as (M)
B5: SEQ ID NO 43 (designed binder)
chain: B2 chain with I77V, A79Y, I80P, V81P, Y82N, W83I, S84W, G85K
notes: N-terminal Met printed as (M)
B6: SEQ ID NO 49 (designed binder)
chain: B2 chain with I77S, R78V, V81R, Y82N, S84Y, G85W
notes: N-terminal Met printed as (M)
B7: SEQ ID NO 29 (designed binder)
chain: B2 chain with I77A, R78A, A79G, I80Y, V81Y, Y82V, W83Y, S84A, G85P
notes: N-terminal Met printed as (M)
B8: SEQ ID NO 41 (designed binder)
chain: B2 chain with I77A, A79Y, I80V, W83Y, S84R, G85W
notes: N-terminal Met printed as (M)
B9: SEQ ID NO 36 (designed binder)
chain: B2 chain with G10S, I77A, R78I, A79K, I80Y, Y82R, W83Y, S84K, G85A
notes: N-terminal Met printed as (M)
B10: SEQ ID NO 37 (designed binder)
chain: B2 chain with P9S, I77S, R78P, A79V, I80Y, V81W, Y82P, W83K, S84G
notes: N-terminal Met printed as (M)
B11: SEQ ID NO 33 (designed binder)
chain: B2 chain with I77V, A79R, I80D, V81I, Y82V, W83V, S84P, G85R
notes: N-terminal Met printed as (M)
B12: SEQ ID NO 32 (designed binder)
chain: B2 chain with I77S, A79S, I80V, V81R, Y82I, S84Y, G85S
notes: N-terminal Met printed as (M)
B13: SEQ ID NO 52 (designed binder)
chain: B2 chain with V8M, I77V, R78W, A79W, I80V, Y82S, W83D, S84P, G85A
notes: N-terminal Met printed as (M)
B14: SEQ ID NO 27 (designed binder)
chain: B2 chain with V42M, I77G, R78V, A79I, I80Y, V81A, W83S, S84Y, G85S
notes: N-terminal Met printed as (M)
B15: SEQ ID NO 47 (designed binder)
chain: B2 chain with I77V, R78N, A79I, I80Y, Y82I, W83S, S84P, G85R
notes: N-terminal Met printed as (M)
B16: SEQ ID NO 35 (designed binder)
chain: B2 chain with I77V, A79D, Y82S, W83I, S84R
notes: N-terminal Met printed as (M)
B17: SEQ ID NO 50 (designed binder)
chain: B2 chain with I77V, A79R, I80Y, V81S, Y82P, W83P, S84N, G85R
notes: N-terminal Met printed as (M)
B18: SEQ ID NO 34 (designed binder)
chain: B2 chain with G51C, G63D, I77S, A79V, I80R, Y82I, W83R, S84W
notes: N-terminal Met printed as (M)
B19: SEQ ID NO 28 (designed binder)
chain: B2 chain with I77A, R78G, A79Y, V81G, Y82R, W83S, S84K, G85A
notes: N-terminal Met printed as (M)
B20: SEQ ID NO 51 (designed binder)
chain: B2 chain with I77V, A79Y, I80W, Y82D, W83R, S84R, G85K
notes: N-terminal Met printed as (M)
B21: SEQ ID NO 40 (designed binder)
chain: B2 chain with I77V, R78V, A79G, I80K, V81W, Y82W, W83V, S84N, G85I
notes: N-terminal Met printed as (M)
B22: SEQ ID NO 39 (designed binder)
chain: B2 chain with I77W, I80V, V81R, Y82W, S84W
notes: N-terminal Met printed as (M)
B23: SEQ ID NO 31 (designed binder)
chain: B2 chain with R78S, A79R, I80P, V81G, Y82W, S84P, G85W
notes: N-terminal Met printed as (M)
B24: SEQ ID NO 42 (designed binder)
chain: B2 chain with I77G, A79Y, I80S, S84Y, G85V
notes: N-terminal Met printed as (M)
B25: SEQ ID NO 45 (designed binder)
chain: B2 chain with I77V, R78A, I80Y, V81P, Y82R, W83A, G85I
notes: N-terminal Met printed as (M)
B26: SEQ ID NO 38 (designed binder)
chain: B2 chain with I77S, R78A, A79S, I80Y, V81Y, Y82V, W83Y, G85Y
notes: N-terminal Met printed as (M)
B27: SEQ ID NO 30 (designed binder)
chain: MATGVRAVSGNENGLEIEELARFAVDEHNKKENALLEFVRVVKAKEQVVAGTMYYLTLEAKDGGKKKLYEAKVWVKRIVRVAVWVNFRELQEFKPVGDA
notes: N-terminal Met printed as (M)
B28: SEQ ID NO 44 (designed binder)
chain: MATGVRAVPGNENSLEIEELARFAVDEHNKKENALLEFVRMVKAKEQYISVDKWVATMYYLTLEAKDGGKKKLYEAKVWVKYGGSCWRGGNFKELQEFKPVGDA
notes: N-terminal Met printed as (M)

The binders below were run against T1, AAV9 capsids (adeno-associated virus serotype 9, Assembled icosahedral capsid of about 60 subunits (VP1, VP2, VP3 from one gene). One VP1 chain is given. Example 1's screen does not say whether the capsids were full or empty.) (assay: ELISA, AAV9 capsids coated on plate, His-tagged variant in E. coli lysate, anti-His-HRP luminescence; signal relative to HSA (A) or to PKD2 control (B)).
T1 construct: Assembled virus capsid

Binder | fold specificity for AAV9 capsids
MCDIPPFVCWWPSWCVWATWVCDGAPDCIDNYDEWICTPTP (designed binder, N-terminal Met printed as (M)) [SEQ ID NO 10] | > 3 fold
MCAIDNFPCNWYIDCIGATWVCDGIIDCIDIADEYDCTPTP (designed binder, N-terminal Met printed as (M)) [SEQ ID NO 12] | > 3 fold
B1 | > 3 fold
MCWVKIFRCNIVGVCIVNTWVCDGRVDCSDPPDEGWCTPTP (designed binder, N-terminal Met printed as (M)) [SEQ ID NO 11] | > 3 fold
B2 | > 3 fold
B3 | > 3 fold
B4 | > 3 fold
B5 | > 3 fold
B6 | > 3 fold
B7 | > 3 fold
B8 | > 3 fold
B9 | > 3 fold
B10 | > 3 fold
B11 | > 3 fold
B12 | > 3 fold
B13 | > 3 fold

Binder | fold specificity for AAV9 capsids
B14 | > 3 fold
B15 | > 3 fold
B16 | > 3 fold
B17 | > 3 fold
B18 | > 3 fold
B19 | > 3 fold
B20 | > 3 fold
B21 | > 3 fold
B22 | > 3 fold
B23 | > 3 fold
B24 | > 3 fold
B25 | > 3 fold
B26 | > 3 fold
B27 | > 3 fold
B28 | > 3 fold
